Twelve molecules from patent US20170306033A1 (Amgen, published 2017) can be followed below.

The target in one assay is T1, human PAC1 receptor (human, UniProt P41586 21-468).
T1 sequence: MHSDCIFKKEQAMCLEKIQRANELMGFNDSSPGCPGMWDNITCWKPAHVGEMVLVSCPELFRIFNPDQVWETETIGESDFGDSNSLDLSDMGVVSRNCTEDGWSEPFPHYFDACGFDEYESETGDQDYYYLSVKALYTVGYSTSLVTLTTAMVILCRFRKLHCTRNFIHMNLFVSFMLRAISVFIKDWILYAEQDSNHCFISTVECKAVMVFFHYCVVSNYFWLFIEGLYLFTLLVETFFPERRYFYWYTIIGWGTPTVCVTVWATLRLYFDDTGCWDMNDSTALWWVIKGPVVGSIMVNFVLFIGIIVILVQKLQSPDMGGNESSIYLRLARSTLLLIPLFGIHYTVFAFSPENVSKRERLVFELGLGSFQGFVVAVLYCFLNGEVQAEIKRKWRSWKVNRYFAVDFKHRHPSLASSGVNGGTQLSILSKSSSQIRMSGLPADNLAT
Nature of the assay: cell-based or functional assay.

For the next assay, the target named is human CGRP receptor (human, UniProt Q16602 23-461; O60894 27-148). Description: cell-based or functional assay.
Sequence of human CGRP receptor (Q16602 23-461 limits assumed, chain 1 of 2): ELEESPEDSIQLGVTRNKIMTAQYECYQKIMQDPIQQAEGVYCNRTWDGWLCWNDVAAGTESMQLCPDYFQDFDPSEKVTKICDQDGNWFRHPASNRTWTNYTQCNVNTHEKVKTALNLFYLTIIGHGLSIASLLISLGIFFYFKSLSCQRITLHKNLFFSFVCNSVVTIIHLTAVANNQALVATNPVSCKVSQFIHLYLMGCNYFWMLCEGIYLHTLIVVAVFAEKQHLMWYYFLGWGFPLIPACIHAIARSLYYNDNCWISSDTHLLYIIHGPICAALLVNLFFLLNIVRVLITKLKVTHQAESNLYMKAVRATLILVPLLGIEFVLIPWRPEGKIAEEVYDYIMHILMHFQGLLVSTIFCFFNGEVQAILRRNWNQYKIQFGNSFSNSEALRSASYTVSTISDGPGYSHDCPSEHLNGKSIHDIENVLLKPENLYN
Sequence of human CGRP receptor (O60894 27-148 limits assumed, chain 2 of 2): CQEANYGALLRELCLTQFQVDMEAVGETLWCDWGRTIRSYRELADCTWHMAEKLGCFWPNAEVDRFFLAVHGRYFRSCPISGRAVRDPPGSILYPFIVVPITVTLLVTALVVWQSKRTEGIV

B1: iPS:328049 (bispecific antibody, human IgG1, kappa, lambda, N297G)
light 1: not shown
heavy 1: not shown
light 2: QSVLTQPPSVSAAPGQKVTISCSGSSSNIGNNYVSWYQQLPGTAPKLLIYDNNKRPSGIPDRFSGSKSGTSTTLGITGLQTGDEADYYCGTWDSRLSAVVFGKGTKLTVLGQPKANPTVTLFPPSSEELQANKATLVCLISDFYPGAVTVAWKADGSPVKAGVETTKPSKQSNNKYAAKSYLSLTPEQWKSHRSYSCQVTHEGSTVEKTVAPTECS
heavy 2: QVQLVESGGGVVQPGRSLRLSCAASGFTFSSFGMHWVRQAPGKELEWVAVISFDGSIKYSVDSVKGRFTISRDNSKNTLFLQMNSLRAEDTAVYYCARDRLNYYDSSGYYHYKYYGMAVWGQGTTVTVSSASTKGPSVFPLAPSSKSTSGGTAALGCLVKDYFPEPVTVSWNSGALTSGVHTFPAVLQSSGLYSLESVVTVPSSSLGTQTYICNVNHKPSNTKVDKKVEPKSCDKTHTCPPCPAPELLGGPSVFLFPPKPKDTLMISRTPEVTCVVVDVSHEDPEVKFNWYVDGVEVHNAKTKPCEEQYGSTYRCVSVLTVLHQDWLNGKEYKCKVSNKALPAPIEKTISKAKGQPREPQVYTLPPSRKEMTKNQVSLTCLVKGFYPSDIAVEWESNGQPENNYKTTPPVLKSDGSFFLYSKLTVDKSRWQQGNVFSCSVMHEALHNHYTQKSLSLSPGK
For the molecule B1, in the assay with human PAC1 receptor, the “% inhibition of human PAC1” value came out at 13%. In the assay with human CGRP receptor, the “% inhibition of human CGRPR” value worked out at 92%.

B2: iPS:326626 (bispecific antibody, human IgG2, kappa, lambda)
light 1: not shown
heavy 1: QVQLQQSGPGLVKPSQTLSLTCAISGDSVSSNSATWNWIRQSPSRGLEWLGRTYYRSKWSNHYAVSVKSRITINPDTSKSQFSLQLNSVTPEDTAVYYCARGTWKQLWFLDHWGQGTLVTVSSASTKGPSVFPLAPCSRSTSESTAALGCLVKDYFPEPVTVSWNSGALTSGVHTFPAVLQSSGLYSLKSVVTVPSSNFGTQTYTCNVDHKPSNTKVDKTVERKCCVECPPCPAPPVAGPSVFLFPPKPKDTLMISRTPEVTCVVVDVSHEDPEVQFNWYVDGVEVHNAKTKPREEQFNSTFRVVSVLTVVHQDWLNGKEYKCKVSNKGLPAPIEKTISKTKGQPREPQVYTLPPSREEMTKNQVSLTCLVDGFYPSDIAVEWESNGQPENNYDTTPPMLDSDGSFFLYSDLTVDKSRWQQGNVFSCSVMHEALHNHYTQKSLSLSPGK
light 2: not shown
heavy 2: not shown
In the case of B2, the “% inhibition of human PAC1” value with human PAC1 receptor worked out at 86%. The “% inhibition of human CGRPR” value with human CGRP receptor was found to be 96%.

B3: iPS:327017 (bispecific antibody, human IgG1, kappa, N297G)
light 1: not shown
heavy 1: not shown
light 2: EIVLTQSPGTLSLSPGERATLSCRASQSVSSGYLTWYQQKPGQAPRLLIYGASSRATGIPDRFSGSGSGTDFTLTISRLEPEDFAVYYCQQYGNSLSRFGQGTKLEIKRTVAAPSVFIFPPSDEQLKSGTASVVCLLNNFYPREAKVQWKVDNALQSGNSQESVTEQDSKDSTYSLKSTLTLSKADYEKHKVYACEVTHQGLSSPVTKSFNRGEC
heavy 2: not shown
Consider B3, for which the “% inhibition of human PAC1” value with human PAC1 receptor was 27%. In addition, the “% inhibition of human CGRPR” value with human CGRP receptor turned out to be 67%.

B4: iPS:327025 (bispecific antibody, human IgG1, kappa, N297G)
light 1: DIQLTQSPSFLSASVGDRVTITCRASQSIGRSLHWYQQKPGKAPKLLIKYASQSLSGVPSRFSGSGSGTEFTLTISSLQPEDFATYYCHQSSRLPFTFGEGTKVDIKRTVAAPSVFIFPPSDEQLKSGTASVVCLLNNFYPREAKVQWKVDNALQSGNSQESVTEQDSKDSTYSLESTLTLSKADYEKHKVYACEVTHQGLSSPVTKSFNRGEC
heavy 1: not shown
light 2: EIVLTQSPGTLSLSPGERATLSCRASQSVSSGYLTWYQQKPGQAPRLLIYGASSRATGIPDRFSGSGSGTDFTLTISRLEPEDFAVYYCQQYGNSLSRFGKGTKLEIKRTVAAPSVFIFPPSDEQLKSGTASVVCLLNNFYPREAKVQWKVDNALQSGNSQESVTEQDSKDSTYSLKSTLTLSKADYEKHKVYACEVTHQGLSSPVTKSFNRGEC
heavy 2: not shown
As for B4, the “% inhibition of human PAC1” value with human PAC1 receptor came to 21%. Besides, the “% inhibition of human CGRPR” value with human CGRP receptor is 76%.

B5: iPS:327092 (bispecific antibody, human IgG1, kappa, N297G)
light 1: not shown
heavy 1: not shown
light 2: EIVLTQSPGTLSLSPGERATLSCRASQSVSSGYLTWYQQKPGQAPRLLIYGASSRATGIPDRFSGSGSGTDFTLTISRLEPEDFAVYYCQQYGNSLSRFGQGTKLEIKRTVAAPSVFIFPPSDEQLKSGTASVVCLLNNFYPREAKVQWKVDNALQSGNSQESVTEQDSKDSTYSLKSTLTLSKADYEKHKVYACEVTHQGLSSPVTKSFNRGEC
heavy 2: not shown
B5: in the assay with human PAC1 receptor, the “% inhibition of human PAC1” value was 52%. Moreover, the “% inhibition of human CGRPR” value with human CGRP receptor was found to be 73%.

B6: iPS:327026 (bispecific antibody, human IgG1, kappa, N297G)
light 1: EIVLTQSPATLSLSPGERATLSCRASQSVGRSLHWYQQKPGQAPRLLIKYASQSLSGIPARFSGSGSGTDFTLTISSLEPEDFAVYYCHQSSRLPFTFGEGTKVDIKRTVAAPSVFIFPPSDEQLKSGTASVVCLLNNFYPREAKVQWKVDNALQSGNSQESVTEQDSKDSTYSLESTLTLSKADYEKHKVYACEVTHQGLSSPVTKSFNRGEC
heavy 1: not shown
light 2: EIVLTQSPGTLSLSPGERATLSCRASQSVSSGYLTWYQQKPGQAPRLLIYGASSRATGIPDRFSGSGSGTDFTLTISRLEPEDFAVYYCQQYGNSLSRFGKGTKLEIKRTVAAPSVFIFPPSDEQLKSGTASVVCLLNNFYPREAKVQWKVDNALQSGNSQESVTEQDSKDSTYSLKSTLTLSKADYEKHKVYACEVTHQGLSSPVTKSFNRGEC
heavy 2: not shown
B6: the “% inhibition of human PAC1” value with human PAC1 receptor came to 78%. Besides, in the assay with human CGRP receptor, the “% inhibition of human CGRPR” value is 81%.

B7: iPS:327019 (bispecific antibody, human IgG1, kappa, N297G)
light 1: EIVLTQSPATLSLSPGERATLSCRASQSVGRSLHWYQQKPGQAPRLLIKYASQSLSGIPARFSGSGSGTDFTLTISSLEPEDFAVYYCHQSSRLPFTFGPGTKVDIKRTVAAPSVFIFPPSDEQLKSGTASVVCLLNNFYPREAKVQWKVDNALQSGNSQESVTEQDSKDSTYSLESTLTLSKADYEKHKVYACEVTHQGLSSPVTKSFNRGEC
heavy 1: not shown
light 2: EIVLTQSPGTLSLSPGERATLSCRASQSVSSGYLTWYQQKPGQAPRLLIYGASSRATGIPDRFSGSGSGTDFTLTISRLEPEDFAVYYCQQYGNSLSRFGQGTKLEIKRTVAAPSVFIFPPSDEQLKSGTASVVCLLNNFYPREAKVQWKVDNALQSGNSQESVTEQDSKDSTYSLKSTLTLSKADYEKHKVYACEVTHQGLSSPVTKSFNRGEC
heavy 2: not shown
Take B7: the “% inhibition of human PAC1” value with human PAC1 receptor is 79%. In addition, the “% inhibition of human CGRPR” value with human CGRP receptor is 65%.

B8: iPS:327091 (bispecific antibody, human IgG1, kappa, N297G)
light 1: not shown
heavy 1: not shown
light 2: EIVLTQSPGTLSLSPGERATLSCRASQSVSSGYLTWYQQKPGQAPRLLIYGASSRATGIPDRFSGSGSGTDFTLTISRLEPEDFAVYYCQQYGNSLSRFGQGTKLEIKRTVAAPSVFIFPPSDEQLKSGTASVVCLLNNFYPREAKVQWKVDNALQSGNSQESVTEQDSKDSTYSLKSTLTLSKADYEKHKVYACEVTHQGLSSPVTKSFNRGEC
heavy 2: not shown
Turning to B8, in the assay with human PAC1 receptor, the “% inhibition of human PAC1” value amounted to 67%. Further, the “% inhibition of human CGRPR” value in the assay with human CGRP receptor was 65%.

B9: iPS:327018 (bispecific antibody, human IgG1, kappa, N297G)
light 1: DIQLTQSPSFLSASVGDRVTITCRASQSIGRSLHWYQQKPGKAPKLLIKYASQSLSGVPSRFSGSGSGTEFTLTISSLQPEDFATYYCHQSSRLPFTFGPGTKVDIKRTVAAPSVFIFPPSDEQLKSGTASVVCLLNNFYPREAKVQWKVDNALQSGNSQESVTEQDSKDSTYSLESTLTLSKADYEKHKVYACEVTHQGLSSPVTKSFNRGEC
heavy 1: not shown
light 2: EIVLTQSPGTLSLSPGERATLSCRASQSVSSGYLTWYQQKPGQAPRLLIYGASSRATGIPDRFSGSGSGTDFTLTISRLEPEDFAVYYCQQYGNSLSRFGQGTKLEIKRTVAAPSVFIFPPSDEQLKSGTASVVCLLNNFYPREAKVQWKVDNALQSGNSQESVTEQDSKDSTYSLKSTLTLSKADYEKHKVYACEVTHQGLSSPVTKSFNRGEC
heavy 2: not shown
As to B9, the “% inhibition of human PAC1” value in the assay with human PAC1 receptor is 17%. In addition, in the assay with human CGRP receptor, the “% inhibition of human CGRPR” value worked out at 68%.

B10: iPS:327024 (bispecific antibody, human IgG1, kappa, N297G)
light 1: not shown
heavy 1: not shown
light 2: EIVLTQSPGTLSLSPGERATLSCRASQSVSSGYLTWYQQKPGQAPRLLIYGASSRATGIPDRFSGSGSGTDFTLTISRLEPEDFAVYYCQQYGNSLSRFGKGTKLEIKRTVAAPSVFIFPPSDEQLKSGTASVVCLLNNFYPREAKVQWKVDNALQSGNSQESVTEQDSKDSTYSLKSTLTLSKADYEKHKVYACEVTHQGLSSPVTKSFNRGEC
heavy 2: not shown
Take B10: the “% inhibition of human PAC1” value with human PAC1 receptor amounted to 7%. Moreover, in the assay with human CGRP receptor, the “% inhibition of human CGRPR” value amounted to 75%.

B11: iPS:327093 (bispecific antibody, human IgG1, kappa, N297G)
light 1: DIQLTQSPSFLSASVGDRVTITCRASQSIGRSLHWYQQKPGKAPKLLIKYASQSLSGVPSRFSGSGSGTEFTLTISSLQPEDFATYYCHQSSRLPFTFGPGTKVDIKRTVAAPSVFIFPPSDEQLKSGTASVVCLLNNFYPREAKVQWKVDNALQSGNSQESVTEQDSKDSTYSLESTLTLSKADYEKHKVYACEVTHQGLSSPVTKSFNRGEC
heavy 1: not shown
light 2: EIVLTQSPGTLSLSPGERATLSCRASQSVSSGYLTWYQQKPGQAPRLLIYGASSRATGIPDRFSGSGSGTDFTLTISRLEPEDFAVYYCQQYGNSLSRFGQGTKLEIKRTVAAPSVFIFPPSDEQLKSGTASVVCLLNNFYPREAKVQWKVDNALQSGNSQESVTEQDSKDSTYSLKSTLTLSKADYEKHKVYACEVTHQGLSSPVTKSFNRGEC
heavy 2: not shown
As for B11, the “% inhibition of human PAC1” value in the assay with human PAC1 receptor worked out at 68%. In the assay with human CGRP receptor, the “% inhibition of human CGRPR” value worked out at 70%.

B12: iPS:327023 (bispecific antibody, human IgG1, kappa, N297G)
light 1: DIQMTQSPSSLSASVGDRITITCRASQSISRYLNWYQQKPGKAPKLLIYAASSLQSGIPSRFSGSGSGTDFTLTINSLQPEDFATYFCQQSYSPPFTFGEGTKVDIKRTVAAPSVFIFPPSDEQLKSGTASVVCLLNNFYPREAKVQWKVDNALQSGNSQESVTEQDSKDSTYSLESTLTLSKADYEKHKVYACEVTHQGLSSPVTKSFNRGEC
heavy 1: not shown
light 2: EIVLTQSPGTLSLSPGERATLSCRASQSVSSGYLTWYQQKPGQAPRLLIYGASSRATGIPDRFSGSGSGTDFTLTISRLEPEDFAVYYCQQYGNSLSRFGKGTKLEIKRTVAAPSVFIFPPSDEQLKSGTASVVCLLNNFYPREAKVQWKVDNALQSGNSQESVTEQDSKDSTYSLKSTLTLSKADYEKHKVYACEVTHQGLSSPVTKSFNRGEC
heavy 2: not shown
Turning to B12, the “% inhibition of human PAC1” value with human PAC1 receptor is 32%. Besides, the “% inhibition of human CGRPR” value with human CGRP receptor amounted to 74%.
